In patent publication US20160096882A1 one finds Neutralization MIC data, which are given here for one molecule.

Common to all, as to assay: cell-based or functional assay
In assay [1] the target is H1N1 New Caledonia/20/99 hemagglutinin (Influenza A virus H1N1 New Caledonia/20/99).
The target in assay [2] is H3N2 Wisconsin/67/05 hemagglutinin (Influenza A virus H3N2 Wisconsin/67/05).
The target of assay [3] is H5N1 Vietnam/1203/04 hemagglutinin (Influenza A virus H5N1 Vietnam/1203/04).

B1: 1286-A11 antibody (antibody, V domains shown)
VH: QVQLQQSGPRLVKPSQTLSLTCAISGDSVSGDSGTWNWIRQSPSRGLEWLGRTYYRSKWYNDYAESVKSRIVIKADTSKNEFSLQLNSVTPEDTAIYYCARAGVKIFGLIVGALDNWGRGTLVTVSS
VL: EIVMTQSPGTLSLSPGERATLSCRASQSVSSSYLAWYQQKPGQAPRLLIYGASTRATGVPDRFHGGGSGTDFTLTISRLEPEDFAVYYCQQYDTSSGLTFGGGTKVEIK
In the case of B1, the results for the Neutralization MIC in assay [1], in assay [2] and in assay [3] were 83 µg/mL, above 333 µg/mL and 333 µg/mL, respectively.
